From article PMC7650249 come the findings set out here.

For test [1], the target named is activated protein C S12C/R312C mutant, labeled with AF555/AF647 (human) (UniProt P04070). As to the kind of experiment: other fluorescence titration; single molecule FRET of freely diffusing labeled protein C or APC (150 pM) titrated with thrombin S195A; shift of the peak center of the low FRET population, single-site fit; 20 mM Tris, 145 mM NaCl, 0.02% Tween 20, pH 7.5, 10 mM EDTA, 20 °C.

In test [2] the target is protein C S12C/R312C mutant, labeled with AF555/AF647 (two-chain zymogen) (human) (UniProt P04070). The description is as above.

As to “thrombin, catalytically inactive mutant S195A (enzyme)”, the Kd (commonly the equilibrium constant for the complex coming apart) in test [1] turned out to be 1100 nM; in test [2], 860 nM.
